Data as given in the supplement of paper PMC9428881.
± gives the standard error.

Experiment: background-corrected fluorescence of 3'-dye-labeled ssDNA relative to brightest sequence (3'-GCGCG) (fraction); higher = brighter dye fluorescence (less quenching)
How it was run: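 Subtracting background from unlabeled oligos and scaling to the brightest sequence gave the reported fluorescence. Single-stranded DNA bearing a 3' Cy3 or Cy5 dye next to each of 1024 permuted pentamers was assembled on glass slides by light-directed phosphoramidite synthesis. Following a 2 h r.t. acetonitrile wash, slides were scanned at 532 or 635 nm before and after overnight ethylenediamine/ethanol deprotection, and values were averaged over 10 features per array and at least 3 syntheses.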

TTTTTTGATGCTGCTCATGATTTTTTTTTTTTTTTCAAGC [CGAAC]
background-corrected fluorescence (dye: Cy3 (3' terminal)): 0.514 ± 0.024
background-corrected fluorescence (dye: Cy5 (3' terminal)): 0.426 ± 0.07

TTTTTTGATGATGATGCTGATTTTTTTTTTTTTTTCCCAC [CACCC]
background-corrected fluorescence (dye: Cy3 (3' terminal)): 0.373 ± 0.022
background-corrected fluorescence (dye: Cy5 (3' terminal)): 0.294 ± 0.044

TTTTTTCAGCATGATGATGATTTTTTTTTTTTTTTGTCCC [CCCTG]
background-corrected fluorescence (dye: Cy3 (3' terminal)): 0.38 ± 0.023
background-corrected fluorescence (dye: Cy5 (3' terminal)): 0.294 ± 0.019

TTTTTTGCTCATGATGATGCTTTTTTTTTTTTTTTAGCCA [ACCGA]
background-corrected fluorescence (dye: Cy3 (3' terminal)): 0.5 ± 0.028
background-corrected fluorescence (dye: Cy5 (3' terminal)): 0.394 ± 0.023

TTTTTTGAGCATGCTGAGCATTTTTTTTTTTTTTTCTACT [TCATC]
background-corrected fluorescence (dye: Cy3 (3' terminal)): 0.454 ± 0.0046
background-corrected fluorescence (dye: Cy5 (3' terminal)): 0.33 ± 0.024

TTTTTTGCGCATCATGAGCATTTTTTTTTTTTTTTATGCT [TCGTA]
background-corrected fluorescence (dye: Cy3 (3' terminal)): 0.518 ± 0.029
background-corrected fluorescence (dye: Cy5 (3' terminal)): 0.393 ± 0.02

TTTTTTGCTCATGAGCATGCTTTTTTTTTTTTTTTAGCTA [ATCGA]
background-corrected fluorescence (dye: Cy3 (3' terminal)): 0.512 ± 0.0099
background-corrected fluorescence (dye: Cy5 (3' terminal)): 0.4 ± 0.019

TTTTTTGCTGCTCATGCTCATTTTTTTTTTTTTTTAAGAG [GAGAA]
background-corrected fluorescence (dye: Cy3 (3' terminal)): 0.607 ± 0.036
background-corrected fluorescence (dye: Cy5 (3' terminal)): 0.489 ± 0.086

TTTTTTGCTGCTGATGATGCTTTTTTTTTTTTTTTAACCA [ACCAA]
background-corrected fluorescence (dye: Cy3 (3' terminal)): 0.492 ± 0.017
background-corrected fluorescence (dye: Cy5 (3' terminal)): 0.375 ± 0.053

TTTTTGCATGATCATGATGATTTTTTTTTTTTTTTTCGCC [CCGCT]
background-corrected fluorescence (dye: Cy3 (3' terminal)): 0.462 ± 0.036
background-corrected fluorescence (dye: Cy5 (3' terminal)): 0.337 ± 0.022

TTTTTTGCGCATCATCATGCTTTTTTTTTTTTTTTATGGA [AGGTA]
background-corrected fluorescence (dye: Cy3 (3' terminal)): 0.712 ± 0.02
background-corrected fluorescence (dye: Cy5 (3' terminal)): 0.599 ± 0.041

TTTTTTCATGCTGATGATCATTTTTTTTTTTTTTTGACCG [GCCAG]
background-corrected fluorescence (dye: Cy3 (3' terminal)): 0.524 ± 0.032
background-corrected fluorescence (dye: Cy5 (3' terminal)): 0.428 ± 0.043

TTTTTGCATGCGCAGCATCATTTTTTTTTTTTTTTTATTG [GTTAT]
background-corrected fluorescence (dye: Cy3 (3' terminal)): 0.522 ± 0.018
background-corrected fluorescence (dye: Cy5 (3' terminal)): 0.359 ± 0.021

TTTTTTGATGAGCAGCATGATTTTTTTTTTTTTTTCCTTC [CTTCC]
background-corrected fluorescence (dye: Cy3 (3' terminal)): 0.362 ± 0.03
background-corrected fluorescence (dye: Cy5 (3' terminal)): 0.288 ± 0.03

TTTTTGCAGCAGCAGCATGCTTTTTTTTTTTTTTTTTTTA [ATTTT]
background-corrected fluorescence (dye: Cy3 (3' terminal)): 0.501 ± 0.033
background-corrected fluorescence (dye: Cy5 (3' terminal)): 0.411 ± 0.028

TTTTTTGCTCATCATGCGCATTTTTTTTTTTTTTTAGGAT
background-corrected fluorescence (dye: Cy3 (3' terminal)): 0.637 ± 0.019
background-corrected fluorescence (dye: Cy5 (3' terminal)): 0.463 ± 0.028

TTTTTGCAGCATCATCATGATTTTTTTTTTTTTTTTTGGC [CGGTT]
background-corrected fluorescence (dye: Cy3 (3' terminal)): 0.556 ± 0.017
background-corrected fluorescence (dye: Cy5 (3' terminal)): 0.457 ± 0.023

TTTTTGCAGCATGCTGCGCATTTTTTTTTTTTTTTTTAAT [TAATT]
background-corrected fluorescence (dye: Cy3 (3' terminal)): 0.576 ± 0.018
background-corrected fluorescence (dye: Cy5 (3' terminal)): 0.412 ± 0.019

TTTTTTGCGCATGCTGCTGCTTTTTTTTTTTTTTTATAAA [AAATA]
background-corrected fluorescence (dye: Cy3 (3' terminal)): 0.567 ± 0.044
background-corrected fluorescence (dye: Cy5 (3' terminal)): 0.507 ± 0.069

TTTTTTGAGCATCATGCGCATTTTTTTTTTTTTTTCTGAT [TAGTC]
background-corrected fluorescence (dye: Cy3 (3' terminal)): 0.59 ± 0.02
background-corrected fluorescence (dye: Cy5 (3' terminal)): 0.455 ± 0.036

TTTTTTGCTGATGCGCAGCATTTTTTTTTTTTTTTACATT
background-corrected fluorescence (dye: Cy3 (3' terminal)): 0.546 ± 0.011
background-corrected fluorescence (dye: Cy5 (3' terminal)): 0.384 ± 0.021

TTTTTTCAGCAGCAGCAGCATTTTTTTTTTTTTTTGTTTT
background-corrected fluorescence (dye: Cy3 (3' terminal)): 0.531 ± 0.019
background-corrected fluorescence (dye: Cy5 (3' terminal)): 0.368 ± 0.021

TTTTTTGCGCATCATGATGATTTTTTTTTTTTTTTATGCC [CCGTA]
background-corrected fluorescence (dye: Cy3 (3' terminal)): 0.436 ± 0.0052
background-corrected fluorescence (dye: Cy5 (3' terminal)): 0.319 ± 0.02

TTTTTGCATCAGCAGCATCATTTTTTTTTTTTTTTTGTTG [GTTGT]
background-corrected fluorescence (dye: Cy3 (3' terminal)): 0.515 ± 0.027
background-corrected fluorescence (dye: Cy5 (3' terminal)): 0.373 ± 0.017

TTTTTTGCTCAGCATGATGATTTTTTTTTTTTTTTAGTCC [CCTGA]
background-corrected fluorescence (dye: Cy3 (3' terminal)): 0.41 ± 0.024
background-corrected fluorescence (dye: Cy5 (3' terminal)): 0.329 ± 0.04

TTTTTTCATGATGCGCATGCTTTTTTTTTTTTTTTGCATA [ATACG]
background-corrected fluorescence (dye: Cy3 (3' terminal)): 0.574 ± 0.02
background-corrected fluorescence (dye: Cy5 (3' terminal)): 0.431 ± 0.024

TTTTTTGCTGCTGATGATCATTTTTTTTTTTTTTTAACCG [GCCAA]
background-corrected fluorescence (dye: Cy3 (3' terminal)): 0.545 ± 0.036
background-corrected fluorescence (dye: Cy5 (3' terminal)): 0.42 ± 0.035

TTTTTTGCGCAGCATCATCATTTTTTTTTTTTTTTATTGG [GGTTA]
background-corrected fluorescence (dye: Cy3 (3' terminal)): 0.549 ± 0.038
background-corrected fluorescence (dye: Cy5 (3' terminal)): 0.476 ± 0.055

TTTTTTGATGATGATGATGCTTTTTTTTTTTTTTTCCCCA [ACCCC]
background-corrected fluorescence (dye: Cy3 (3' terminal)): 0.423 ± 0.023
background-corrected fluorescence (dye: Cy5 (3' terminal)): 0.352 ± 0.021

TTTTTTCAGCATGAGCAGCATTTTTTTTTTTTTTTGTCTT [TTCTG]
background-corrected fluorescence (dye: Cy3 (3' terminal)): 0.505 ± 0.017
background-corrected fluorescence (dye: Cy5 (3' terminal)): 0.364 ± 0.03

TTTTTTCAGCATGCTGCTCATTTTTTTTTTTTTTTGTAAG [GAATG]
background-corrected fluorescence (dye: Cy3 (3' terminal)): 0.582 ± 0.038
background-corrected fluorescence (dye: Cy5 (3' terminal)): 0.462 ± 0.069

TTTTTGCATGATCATGAGCATTTTTTTTTTTTTTTTCGCT
background-corrected fluorescence (dye: Cy3 (3' terminal)): 0.486 ± 0.0071
background-corrected fluorescence (dye: Cy5 (3' terminal)): 0.392 ± 0.085

TTTTTTGCTGCTGAGCAGCATTTTTTTTTTTTTTTAACTT [TTCAA]
background-corrected fluorescence (dye: Cy3 (3' terminal)): 0.523 ± 0.0097
background-corrected fluorescence (dye: Cy5 (3' terminal)): 0.362 ± 0.026

TTTTTGCATCATGCTGATGCTTTTTTTTTTTTTTTTGACA [ACAGT]
background-corrected fluorescence (dye: Cy3 (3' terminal)): 0.527 ± 0.019
background-corrected fluorescence (dye: Cy5 (3' terminal)): 0.411 ± 0.026
